Data published in the RNAGym collection of RNA variant scans (doi:10.1073/pnas.2313332121).

B1: TPR t1 (parent)
chain: GACCAAUCUGCCCUCAGAGCUCGAGAACAUCUUCGGAUGCAGAGGAGGCAGGCUUCGGUGGCGCGAUAGCGCCAACGUCCUCAACCUCCAAUGCAUCCCACCACAUGAUGAUGCCUGAAGAGCCUUGGUUUUUUG

Variants of: B1
Test: polymerase ribozyme fitness, log enrichment relative to wild type (log ratio); higher = more active; in vitro selection for triplet polymerase activity
Summary of the method: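 Each subunit of a heterodimeric triplet polymerase ribozyme was mutagenized into a library by PCR, transcribed, and subjected to one round of in vitro selection, run in triplicate. Libraries were annealed with a biotinylated primer, the partner subunit and triplets, incubated frozen at −7 °C, and extended constructs were gel-excised, captured on streptavidin beads and recovered by RT-PCR. Input and output libraries were sequenced on Illumina, keeping genotypes with ≥10 input reads and ≥1 read per output. Fitness is log base 2 of genotype enrichment divided by wild-type enrichment, from inverse-variance-weighted replicate averages.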

In order of rising “polymerase ribozyme fitness (log ratio)” value:
1. C11G U32A C34U C115G  -8.31
2. G10U C20G C99U C115U  -8.2
3. C11G G19C G23A G63A A83C C114U C115U C123G  -7.99
4. C11G A50U A66G U87C C115U A118C  -6.65
5. C11G U14A A26C C80A C89U C124U  -6.54
6. G10C G47U C101A A103U  -6.38
7. C11G C40U G47C C56A U92A  -6.34
8. C11G C28G A105U G110U  -6.33
9. C11A C49G G63C C79A  -6.2
10. C11G G23A C76U  -6.14
11. G10C C70U A108U U112A U132C  -6.08
12. C11G C12A G51A C80A U116G  -5.92
13. G10U A27U C76G U109G  -5.77
14. C11G A27C G113C G127C  -5.64
15. C11A G39C G110C  -5.5
16. G10C G45U G47U C73A G117A A119U  -5.46
17. C11A G48A A50U C70U C97G G122A  -5.3
18. G10U C28G A46U G52A G63A U87C  -5.27
19. C11G C13U C56U G69A G77C C101A  -5.25
20. C11A C15U G44U C72A U129A U132C  -5.25
21. G10U C12U C31U C72U C85A G122A  -5.23
22. C11A G51C  -4.99
23. C11A U14A A18U U55C  -4.98
24. C11G G69A C70A  -4.98
25. G10U G71A A103U C114U  -4.96
26. G10C C56U G117C  -4.57
27. G10U C13U G60C G107A U112C G127U  -4.55
28. C11U A16C G93C  -4.45
29. C11A C31U C40U G47C C62U G107A  -4.34
30. C11A C53G G60C G77C C86G  -4.21
31. C11G G42A U59A A91C C94A A95G A118G  -4.19
32. C11G G42C C49U G117C C124G  -4.14
33. C11A C56A A100C  -3.86
34. C11G G71A C89U G110U  -3.53
35. G10C A83U U106G  -3.53
36. C11G G117U G127U  -3.47
37. C11A A41U G45C  -3.39
38. G10C C20U G48C C114A C123U  -3.33
39. C11A C40U C49U C56A C123G U129A  -3.2
40. C11G A16U G58C A83C C89U U131A  -3.15
41. C11G G48C A66G G110A  -3.11
42. G10U G69A  -3.09
43. C11G A74U C76A U78A C80U G93U G135C  -3.08
44. C11G A29G C49G G93U  -3.07
45. C11A G52A C73G  -2.98
46. C11G C34U C49A C123U  -2.86
47. G10U G19C A37U C72A C73U C123G U130C  -2.79
48. G10C C89A  -2.73
49. C11U A37C G45U G58A  -2.72
50. C11G C82G G117C  -2.58
51. C11U A43G C72G  -2.54
52. C11G A43G C85A C89G C94U  -2.52
53. G10U C40A C64U U81C  -2.46
54. G10C G42U G48A  -2.39
55. G10C C114U  -2.38
56. C11A A46C G61U C94A  -2.34
57. C11G G39C A74U C115U  -2.3
58. G10C G113C  -2.27
59. C11G G48U G61A C73A A90G  -2.19
60. C11G C20A C53G U132A  -2.13
61. C11A G77A C82G  -1.88
62. G10C C98U  -1.81
63. C11A G60C  -1.7
64. C11A G71A  -1.67
65. C11G C85G  -1.55
66. C11U A27U G120A U132A  -1.47
67. G10U G110A  -1.35
68. C11G C76A G77A G93U  -1.15
69. C11A G71U  -1.08
70. G10C U87A  -0.978
71. C11G G47A  -0.824
72. C11G G61A C64U G120U  -0.77
73. C11G G39A G60C  -0.748
74. G10U C40G  -0.556
75. C11G G47U  -0.345
76. C11G U21A G77A  -0.311
77. G10U U55G A111C  -0.134
78. C11G G113A  -0.119
79. C11G U130A  0.0419
80. G10U C56A U112A  0.0795
81. G10U U112G  0.352
82. C11G G122A  0.352
83. C11G G52U A118G C124G  0.453
84. C11U A41G C56G C124A  1.04
